Results: patent US20100322937A1 (published 2010)

Key:
[1] = biological target: T1, Y^246W EGFR (full-length human, FLAG tag) on BaF/3 cells (human, UniProt P00533 25-1210); assay: Scatchard, 125I-EGF on BaF/3 cells, Kd2 (low-affinity site)
T1 construct: whole, on cells
Experimental: (§1) Ligand binding to cells expressing the wt or mutant EGFR was determined at room temperature in the presence of the internalization inhibitor phenylarsine oxide (PAO) (29) by cold saturation experiments. […] All experimental points were prepared in triplicate. At the end of the incubation, the cells were pelleted and washed twice in ice-cold PBS before transferring to fresh tubes for counting in a Wallac WIZARD γ-counter (PerkinElmer, Boston, Mass.). Scatchard plots and estimates of ligand binding affinities and receptor numbers were obtained using the Radlig program (BioSoft, Cambridge, UK).
(§2) Data were analyzed using the “Kell for Windows” RadLig program. ^{(a)}Number of receptors per cell were calculated from the Bₘₐₓ and the number of cells/tube in each ligand binding experiment.

[2] = biological target: T2, wtEGFR: full-length human EGFR with FLAG tag after the leader, on BaF/3 cells (human, UniProt P00533 25-1210); assay: as above
T2 construct: whole, on cells; BaF/3 cells have no endogenous EGF receptors; also called wtEGFR-BaF/3
Experimental: as §1, §2

[3] = biological target: T3, Y^246F EGFR (full-length human, FLAG tag) on BaF/3 cells (human, UniProt P00533 25-1210); assay: as above
T3 construct: whole, on cells
Experimental: as §1, §2

[4] = biological target: T4, V^583D EGFR (full-length human, FLAG tag) on BaF/3 cells (human, UniProt P00533 25-1210); assay: as above
T4 construct: whole, on cells
Experimental: as §1, §2

[5] = biological target: T5, E^578C EGFR (full-length human, FLAG tag) on BaF/3 cells (human, UniProt P00533 25-1210); assay: as above
T5 construct: whole, on cells
Experimental: as §1, §2

[6] = biological target: T6, Y^246D EGFR (full-length human, FLAG tag) on BaF/3 cells (human, UniProt P00533 25-1210); assay: as above
T6 construct: whole, on cells
Experimental: as §1, §2

[7] = biological target: T7, D^563H EGFR (full-length human, FLAG tag) on BaF/3 cells (human, UniProt P00533 25-1210); assay: as above
T7 construct: whole, on cells
Experimental: as §1, §2

[8] = biological target: T8, L^245C/E^578C EGFR (full-length human, FLAG tag) on BaF/3 cells (human, UniProt P00533 25-1210); assay: as above
T8 construct: whole, on cells
Experimental: as §1, §2

[9] = biological target: T1, Y^246W EGFR (full-length human, FLAG …); assay: calculated from Scatchard Kd and Bmax
Experimental: as §1
(§3) The data are representative of at least three separate experiments

[10] = biological target: T2, wtEGFR: full-length human EGFR with …; assay: calculated from Scatchard Kd and Bmax
Experimental: as §1, §3

[11] = biological target: T3, Y^246F EGFR (full-length human, FLAG …); assay: calculated from Scatchard Kd and Bmax
Experimental: as §1, §3

[12] = biological target: T4, V^583D EGFR (full-length human, FLAG …); assay: calculated from Scatchard Kd and Bmax
Experimental: as §1, §3

[13] = biological target: T5, E^578C EGFR (full-length human, FLAG …); assay: calculated from Scatchard Kd and Bmax
Experimental: as §1, §3

[14] = biological target: T6, Y^246D EGFR (full-length human, FLAG …); assay: calculated from Scatchard Kd and Bmax
Experimental: as §1, §3

[15] = biological target: T7, D^563H EGFR (full-length human, FLAG …); assay: calculated from Scatchard Kd and Bmax
Experimental: as §1, §3

[16] = biological target: T2, wtEGFR: full-length human EGFR with …; assay: Scatchard, 125I-EGF on BaF/3 cells, Kd1 (high-affinity site)
Experimental: as §1, §2

[17] = biological target: T4, V^583D EGFR (full-length human, FLAG …); assay: as above
Experimental: as §1, §2

[18] = biological target: T7, D^563H EGFR (full-length human, FLAG …); assay: as above
Experimental: as §1, §2

[19] = biological target: T1, Y^246W EGFR (full-length human, FLAG …); assay: Scatchard, 125I-EGF on BaF/3 cells
Experimental: as §1, §2

[20] = biological target: T2, wtEGFR: full-length human EGFR with …; assay: Scatchard, 125I-EGF on BaF/3 cells
Experimental: as §1, §2

[21] = biological target: T3, Y^246F EGFR (full-length human, FLAG …); assay: Scatchard, 125I-EGF on BaF/3 cells
Experimental: as §1, §2

[22] = biological target: T4, V^583D EGFR (full-length human, FLAG …); assay: Scatchard, 125I-EGF on BaF/3 cells
Experimental: as §1, §2

[23] = biological target: T5, E^578C EGFR (full-length human, FLAG …); assay: Scatchard, 125I-EGF on BaF/3 cells
Experimental: as §1, §2

[24] = biological target: T6, Y^246D EGFR (full-length human, FLAG …); assay: Scatchard, 125I-EGF on BaF/3 cells
Experimental: as §1, §2

[25] = biological target: T7, D^563H EGFR (full-length human, FLAG …); assay: Scatchard, 125I-EGF on BaF/3 cells
Experimental: as §1, §2

[26] = biological target: T8, L^245C/E^578C EGFR (full-length human, …); assay: Scatchard, 125I-EGF on BaF/3 cells
Experimental: as §1, §2

[27] = biological target: T1, Y^246W EGFR (full-length human, FLAG …); assay: cell-based or functional assay
[28] = biological target: T2, wtEGFR: full-length human EGFR with …; assay: cell-based or functional assay
[29] = biological target: T3, Y^246F EGFR (full-length human, FLAG …); assay: cell-based or functional assay
[30] = biological target: T4, V^583D EGFR (full-length human, FLAG …); assay: cell-based or functional assay
[31] = biological target: T5, E^578C EGFR (full-length human, FLAG …); assay: cell-based or functional assay
[32] = biological target: T6, Y^246D EGFR (full-length human, FLAG …); assay: cell-based or functional assay
[33] = biological target: T7, D^563H EGFR (full-length human, FLAG …); assay: cell-based or functional assay

B1: Murine EGF, purified from mouse submaxillary glands (ligand, UniProt P01132 977-1029, looked up)
chain: NSYPGCPSSYDGYCLNGGVCMHIESLDSYTCNCVIGYSGDRCQTRDLRWWELR
modifications: iodinated with 125I (Iodogen) as tracer in the Scatchard assays
notes: mature; also called ^125I-EGF
Kd [1]: 2.5 nM | Kd [2]: 1.6 nM | Kd [3]: 2.8 nM | Kd [4]: 1.3 nM | Kd [5]: 1.7 nM | Kd [6]: 2.1 nM | Kd [7]: 1.7 nM | Kd [8]: 2.1 nM | [EGF] at which 500R/cell are occupied [9]: 60 pM | [EGF] at which 500R/cell are occupied [10]: 16 pM | [EGF] at which 500R/cell are occupied [11]: 30 pM | [EGF] at which 500R/cell are occupied [12]: < 1 pM | [EGF] at which 500R/cell are occupied [13]: 80 pM | [EGF] at which 500R/cell are occupied [14]: 400 pM | [EGF] at which 500R/cell are occupied [15]: 8 pM | Kd [16]: 0.029 nM | Kd [17]: 0.0026 nM | Kd [18]: 0.0176 nM | % of sites (Kd2) [19]: 100% | R/cell (from Bmax) [19]: 29000 receptors/cell | % of sites (Kd1) [20]: 2.6% | % of sites (Kd2) [20]: 97.5% | R/cell (from Bmax) [20]: 34000 receptors/cell | % of sites (Kd2) [21]: 100% | R/cell (from Bmax) [21]: 30000 receptors/cell | % of sites (Kd1) [22]: 12.6% | % of sites (Kd2) [22]: 90.8% | R/cell (from Bmax) [22]: 38000 receptors/cell | % of sites (Kd2) [23]: 100% | R/cell (from Bmax) [23]: 34500 receptors/cell | % of sites (Kd2) [24]: 100% | R/cell (from Bmax) [24]: 12000 receptors/cell | % of sites (Kd1) [25]: 4.4% | % of sites (Kd2) [25]: 96.4% | R/cell (from Bmax) [25]: 23000 receptors/cell | % of sites (Kd2) [26]: 100% | % maximal incorporation ([^3H]Thymidine) [27]: 0% | % maximal incorporation ([^3H]Thymidine) [28]: 100% | EC50 for EGF ([^3H]Thymidine incorporation) [28]: 0.012 nM | % maximal incorporation ([^3H]Thymidine) [29]: 16% | EC50 for EGF ([^3H]Thymidine incorporation) [29]: 0.03 nM | % maximal incorporation ([^3H]Thymidine) [30]: 100% | EC50 for EGF ([^3H]Thymidine incorporation) [30]: 0.006 nM | % maximal incorporation ([^3H]Thymidine) [31]: 100% | EC50 for EGF ([^3H]Thymidine incorporation) [31]: 0.1 nM | % maximal incorporation ([^3H]Thymidine) [32]: 0% | % maximal incorporation ([^3H]Thymidine) [33]: 90% | EC50 for EGF ([^3H]Thymidine incorporation) [33]: 0.005 nM
